Experimental findings from publication PMC6704105 are described below.

The test has as its target PRMT5 (UniProt O14744). Kind of test: co-IP with anti-PRMT5, JDP2 blot. The conditions noted are these: reference: wild-type JDP2; sites T116.

As to JDP2 (from UniProt Q8WYK2) JDP2 T116A, the “binding against the reference” value is recorded as “lost”.
